Publication PMC5454376, “Molecular mechanism of Gαi activation by non-GPCR proteins with a Gα-Binding and Activating motif” (Nature Communications, 2017)

Experiments:
Gαi3-[ ] = test: Pull-down, nucleotide-free Gαi3; format: binding, rat; settings: GST fusion on glutathione-agarose (GIV 1,671–1,755; Ric-8A 12–491), 4 °C, pH 8.1, immunoblot
Method: (§1) Preparation of nucleotide-free Gαi3 and pull-down assay
(§2) His-tagged rat Gαi3 cloned in a pET28b vector was purified from BL21(DE3) bacteria (Life Technologies) after isopropyl-[beta]-D-thiogalactoside (IPTG) induction. Nucleotide-free Gαi3 was prepared by promoting nucleotide release with high concentrations of ammonium sulfate in the presence of glycerol. For this, His-Gαi3 was run through a Superdex S75 column equilibrated with 20 mM Tris-HCl (pH 7.4), 20 mM NaCl, 1 mM MgCl2, 1 mM dithiothreitol (DTT), 10 μM GDP and 5% (v/v) glycerol. A volume of 200 μl of His-Gαi3 at ∼5 μM were loaded on a Sephadex G-25 column (10 ml) equilibrated with 1 M ammonium sulfate, 20% (v:v) glycerol (pH 6) and the protein eluted at room temperature with the same buffer. Protein-containing fractions were pooled (∼400–600 μl) and incubated overnight at 4 °C. […] After transfer to polyvinylidene difluoride (PVDF) membranes, GST-fused proteins were visualized by Ponceau S staining and His-Gαi3 detected by immunoblotting with mouse anti-polyHis-Tag primary antibodies (1:2,500, Sigma, H1029) and goat anti-mouse IRDye 800F(ab′)2 secondary antibodies (1:10,000, Li-Cor) using an Odyssey Infrared Imaging System (Li-Cor Biosciences). […]

Gα = settings: cited from earlier work
Source text: GBA proteins also differ from the non-receptor GEF Ric-8A. Although both Ric-8A and GBA proteins activate monomeric Gα instead of Gαβγ trimers, removal of the C terminus of Gα only abrogates Ric-8A action. This indicates a different mode of G-protein binding for Ric-8A that resembles how GPCR bind. […] We are confident about the similarity on which the model was built because of several lines of evidence presented in this manuscript and in previously published work. […] Second, sequence similarity with the KB-752 and rudimentary modeling allowed us to identify residues in the GBA motif of GIV ...

Gαi3 N269D = test: Co-immunoprecipitation in HEK293T cells, Gαi3 N269D versus WT; format: binding; settings: HEK293T lysates, FLAG-tagged Gαi3 N269D vs WT; GST-Ric-8A 1 μg added
Method: HEK293T cells (American Type Culture Collection) were grown at 37 °C in DMEM supplemented with 10% FBS, 100 U ml^−1 penicillin, 100 μg ml^−1 streptomycin, 1% L-glutamine and 5% CO2. DNA plasmids encoding for C-terminally 3xFLAG-tagged Gαi3 (ref. [25]) or an empty plasmid (p3xFLAG-CMV-14) were transfected using the calcium phosphate method in 10 cm dishes. The DNA amount for the Gαi3 N269D plasmid was threefold (12 μg) of that for Gαi3 WT (4 μg) to equalize their expression levels. Cells were collected 48 h after transfection by gently scrapping in PBS, centrifuged and resuspended in 1 ml of lysis buffer (20 mM HEPES (pH 7.2), 5 mM Mg(CH3COO)2, 125 mM K(CH3COO), 0.4% (v:v) Triton X-100, 1 mM DTT, 10 mM β-glycerophosphate and 0.5 mM Na3VO4 supplemented with a protease inhibitor cocktail (Sigma; catalogue #S8830)) and cleared (14,000g for 10 min) before use. Lysates were supplemented with 1 μg of purified GST-Ric-8A (12–491)[22] and 2 μg of mouse anti-FLAG antibody (Sigma F1804), and incubated for 4 h at 4 °C with rotation. BSA-blocked Protein G agarose beads (Thermo-Scientific) were added and tubes incubated for additional 90 min at 4 °C. Beads were washed four times (4.3 mM Na2HPO4, 1.4 mM KH2PO4, pH 7.4, 137 mM NaCl, 2.7 mM KCl, 0.1% (v/v) Tween 20, 10 mm MgCl2, 5 mm EDTA and 1 mm DTT) and immunoprecipitated proteins eluted by boiling in Laemmli sample buffer. […]

Gαi3-[GDP] = test: Pull-down, GDP-loaded Gαi3; format: binding, rat; settings: GST fusion on glutathione-agarose, 100 μM GDP, 4 °C, pH 8.1, immunoblot
Method: as §1, §2

Gαi3-[GTP] = test: Pull-down, GDP/AlF4^−-loaded Gαi3; format: binding, rat; settings: GST fusion on glutathione-agarose, 4 °C, pH 8.1, immunoblot
Method: as §1, §2

Gαi3 = settings: GBA motif of CALNUC; cited from earlier work
Source text: The disordered nature of GIV-CT is intrinsic and not a consequence of the truncation of the protein at residue 1,660 since disorder is predicted for the C-terminal 330 residues of the GIV sequence, and larger fragments of GIV can also recapitulate G-protein binding and/or activation in a GBA motif-dependent manner. The ...

Molecule	binding to Gαi3-[ ] (Gαi3-[ ])	effect of removal of the C terminus of Gα (Gα)	co-immunoprecipitation with nucleotide-free-mimicking mutant compared with WT (Gαi3 N269D)	binding to Gαi3-[GDP] (Gαi3-[GDP])	binding to Gαi3-[GTP] (Gαi3-[GTP])	Gαi3 binding, calcium dependence (Gαi3)
Ric-8A: non-receptor GEF used as control (protein, left off: GST, end not stated, kept, non-receptor GEF used as control) TGEEDAVTEALRSFNREHSQSFTFDDAQQEDRKRLAKLLVSVLEQGLSPKHRVTWLQTIRILSRDRSCLDSFASRQSLHALACYADIAISEEPIPQPPDMDVLLESLKCLCNLVLSSPTAQMLAAEARLVVRLAERVGLYRKRSYPHEVQFFDLRLLFLLTALRTDVRQQLFQELHGVRLLTDALELTLGVAPKENPLVILPAQETERAMEILKVLFNITYDSVKREVDEEDAALYRYLGTLLRHCVMADAAGDRTEEFHGHTVNLLGNLPLKCLDVLLALELHEGSLEFMGVNMDVINALLAFLEKRLHQTHRLKECVAPVLSVLTECARMHRPARKFLKAQVLPPLRDVRTRPEVGDLLRNKLVRLMTHLDTDVKRVAAEFLFVLCSESVPRFIKYTGYGNAAGLLAARGLMAGGRPEGQYSEDEDTDTEEYREAKASINPVTGRVEEKPPNPMEGMTEEQKEHEAMKLVNMFDKLSR	binds preferentially	abrogates	binds more	weaker binding	dissociation	–
GAIP: GAIP (also known as RGS19), a GAP used as control (protein, left off: GST, end not stated, kept, GAIP (also known as RGS19), a GAP used as control) MPTPHEAEKQITGPEEADRPPSMSSHDTASPAAPSRNPCCLCWCCCCSCSWNQERRRAWQASRESKLQPLPSCEVCATPSPEEVQSWAQSFDKLMHSPAGRSVFRAFLRTEYSEENMLFWLACEELKAEANQHVVDEKARLIYEDYVSILSPKEVSLDSRVREGINKKMQEPSAHTFDDAQLQIYTLMHRDSYPRFLSSPTYRALLLQGPSQSSSEA	–	–	–	not to Gαi3-[GDP]	binds exclusively	–
CALNUC: GBA motif protein with calcium-binding EF hands (protein, UniProt Q02818 27-461, looked up) Nucleobindin-1: VPLERGAPNKEETPATESPDTGLYYHRYLQEVIDVLETDGHFREKLQAANAEDIKSGKLSRELDFVSHHVRTKLDELKRQEVSRLRMLLKAKMDAEQDPNVQVDHLNLLKQFEHLDPQNQHTFEARDLELLIQTATRDLAQYDAAHHEEFKRYEMLKEHERRRYLESLGEEQRKEAERKLEEQQRRHREHPKVNVPGSQAQLKEVWEELDGLDPNRFNPKTFFILHDINSDGVLDEQELEALFTKELEKVYDPKNEEDDMREMEEERLRMREHVMKNVDTNQDRLVTLEEFLASTQRKEFGDTGEGWETVEMHPAYTEEELRRFEEELAAREAELNAKAQRLSQETEALGRSQGRLEAQKRELQQAVLHMEQRKQQQQQQQGHKAPAAHPEGQLKFHPDTDDVPVPAPAGDQKEVDTSEKKLLERLPEVEVPQHL	–	–	–	–	–	only when the protein is not calcium-bound
